The source of these data is patent publication US20210332123A1 (SUZHOU KANOVA BIOPHARMACEUTICAL, published 2021).

The target in test [1] is T1, human IL-25 (human, UniProt Q9H293 33-177).
T1 construct: ELISA used bought R&D systems #1258-IL-025/CF; Treated as one molecule; also called IL-17E; human IL-17E
T1 sequence (looked up): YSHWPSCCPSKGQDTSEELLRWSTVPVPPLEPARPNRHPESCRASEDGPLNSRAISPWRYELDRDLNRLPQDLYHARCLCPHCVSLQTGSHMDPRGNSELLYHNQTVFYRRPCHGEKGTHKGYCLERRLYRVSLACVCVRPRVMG
Kind of test: ELISA, plate coated with human IL-25 (hIl25-HIS), OD450, Example 4; unit from the axis lg(nM) and paragraph 95. Here is the method: MaxiSorp 96-well plates (NUNC #449824, www.thermofisher.com) were coated with 2 μg/ml human IL-25 (R&D systems #1258-IL-025/CF) in 1×PBS (50 μl/well). Plates were incubated at 4° C. overnight. Coating solution was removed and plates were washed once with 200 μl/well PBST (1×PBS with 0.05% tween-20). Then 200 μl/well blocking buffer (1×PBS with 0.05% tween-20, 3% BSA) were added and incubated at room temperature for 1 hour. Blocking buffer was removed and plates were washed three times with 200 μl/well PBST (1×PBS with 0.05% tween-20). Anti-IL-25 antibodies (produced in Example 2) were diluted to 10, 3.33, 1.11, 0.37, 0.123, 0.041, 0.0137, 0.0046, 0.0015, 0.00031, 0.000102, 0.000034 μg/ml by 1×PBS and added to plates (50 μl/well). Plates were incubated at room temperature for 2 hours. Antibodies in the wells were removed and plates were washed three times with 200 μl/well PBST (1×PBS with 0.05% tween-20). Goat anti-human IgG (H&L)-HRP secondary antibody (Jackson Immuno Research #109-035-088, www.jacksonimmuno.com) was diluted 1:5000 in 1×PBS and added to each well (50 μl/well). Plates were incubated at room temperature for 1 hour. Secondary antibody was removed and plates were washed seven times with 200 μl/well PBST (1×PBS with 0.05% tween-20) each time. 50 μl/well TMB (eBioscience #85-00-4201-56, www.ebioscience.com) was added and plates were incubated at room temperature for several minutes. Then 50 μl/well 2N H₂SO₄ was added to stop the reaction. Optical density was measured at 450 nm in relation to human IL-25 binding.
(An ELISA detects its analyte on a solid surface through an enzyme-linked reagent.)

In test [2] the target is T1, human IL-25. Kind of test: cell-based or functional assay.
The next test addresses T2, mouse IL-25 (mouse, UniProt Q8VHH8 17-169, limits assumed).
T2 construct: In-house production
T2 sequence (looked up): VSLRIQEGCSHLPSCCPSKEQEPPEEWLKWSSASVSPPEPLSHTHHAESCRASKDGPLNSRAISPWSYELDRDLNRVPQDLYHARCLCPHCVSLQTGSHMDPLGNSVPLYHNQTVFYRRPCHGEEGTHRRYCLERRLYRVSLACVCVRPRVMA
The test is described as follows: ELISA, plate coated with mouse IL-25, OD450, Example 7; unit from the axis lg(nM) [panel Mouse IL-25].

B1: VH1-2-VL2-1 (antibody, V domains shown)
VH: QVTLKESGPTLLKPTQTLTLTCTFSGFSLSTSGMGLGWIRQPPGKALEWLAHIWWDDVKHYKPALKSRLTITKDTSKNQVVLTITNVDPVDTATYYCARMGQLHYYGYDYAMDYWGQGTLVTVSS
VL: DIQLTQSPSFLSASVGDRVTITCSASSSVSYMYWYQQKPGKAPKPLIYRTSNLASGVPSRFSGSGSGTEYTLTISSMQPEDFATYYCQLYHSYPPTWTFGQGTKLEIK
notes: also called antibody formed by VH1-2 and VL2-1; copies: 2 + 2
For orientation: EC50 means the concentration at which the effect is half-maximal. Regarding B1, the EC50 is 0.208 nM in the test with human IL-25 [1] and 0.215 nM with mouse IL-25. In addition, the “IC50, CXCL1/GROalpha production of HT-29 cells stimulated by human IL-25 [B]” value with human IL-25 [2] was 11.4 nM.
